Experiments:
[1] = Thermal stability, 5 minutes, residual activity by PMS-DCIP assay; assay type: physicochemical
Procedure: Table 4 indicates the results of thermal-stabilities of the enzymes. The enzyme (about 0.05 mg/ml) in 25 mM HEPES buffer, pH 7.5, containing 5% sucrose, 0.2 M NaCl, and 5 mM CaCl2 was incubated at temperature indicated in the table (4-60° C.) for 5 minutes, cooled in ice bath and assayed by PMS-DCIP spectrophotometric method. Remaining activity was expressed as relative activity against that obtained by 4° C. incubation.

[2] = pH stability, 3 hours at 25° C., residual activity by PMS-DCIP assay; assay type: physicochemical; settings: relative to no incubation at pH 8.0
Procedure: Enzymes A, A′, A″ and B were incubated in buffers of various pH-values for 3 hours at 25° C. and the residual activities were assayed and expressed as relative values against that obtained by no incubation at pH 8.
Table 3 indicates the results of pH-stabilities of the enzymes. The enzyme (about 0.01 mg/ml) was incubated with 50 mM buffer containing 5% sucrose, 0.2 M NaCl, and 5 mM CaCl2 at 25° C. for 3 hours and assayed by PMS-DCIP spectrophotometric method. The buffers were Na-acetate, pH4 and 5, Tris-malate-NaOH, pH 6, 7 and 8, glycine-NaOH, pH 9 and 10. The values in the table are expressed as relative activity against that obtained by no incubation at pH 8.0.

[3] = Oxidation product of AADH clones by resting cell reaction followed by TLC analysis; assay type: cell-based, P. putida
Description: Enzyme A gene was originally cloned as a cosmid clone of p24D4 which has about 25 kb insert in EcoRI site of pVK100. Then, it was further subcloned to use as an Enzyme A gene cassette. The 2.7 kb EcoRV fragment which includes ORF of Enzyme A gene with about 500 bp of non-coding regions at the both ends was excised from 3.4 kb NruI fragment, which was isolated from p24D4 in M13 mp18, and was ligated to HindIII site of pUC18 with HindIII linker ([…]). The resulting plasmid was designated pSSA202. Enzyme A gene cassette (2.7 kb HindIII fragment) was then inserted at HindIII site of pVK102 to produce pSSA102R. The plasmid pSSA102R was introduced into nalidixic acid resistant P. putida [ATCC 21812] by a conjugal mating method as described in Example 1-(1). The transconjugant of P. putida carrying pSSA102R was selected on MB agar medium containing 50 μg/ml nalidixic acid and 10 μg/ml tetracycline (MNT agar medium) and subjected to a mini-resting cell reaction. […] The reaction mixture was assayed with TLC and 2KGA was identified as the product, while no 2KGA was observed by the same resting cell reaction with the host, nalidixic acid resistant P. putida [ATCC 21812].

[4] = Substrate specificity of purified enzymes, PMS-DCIP spectrophotometric assay; assay type: biochemical; settings: A′ corrected 1.5-fold (purity about 65%)
Procedure: The enzymatic activity of the AADHs herein can be determined by methods known in the art, such as by photometric analysis using a spectrophotometer. In accordance with the present invention, one unit of enzyme activity was defined as the amount of enzyme which catalyzed the reduction of 1 μmole of DCIP per minute. The extinction coefficient of DCIP at pH 8.0 was taken as 15 mM^−1. In a preferred standard assay for determining the enzyme activity of the AADHs herein, a first cuvette includes a standard reaction mixture (1.0 ml) containing 0.1 mM DCIP, 1 mM PMS, 2 to 125 mM substrate, 50 mM Tris-malate-NaOH buffer (pH 8.0), and 10 μl of the enzyme solution. A second cuvette, i.e., a reference cuvette, contains all the above components except the substrate. The reference cuvette is used to standardize the background absorbance resulting from a substrate-independent (endogenous) reaction. Preferably, a double beam spectrophotometer is used to determine the activity of the enzyme in the presence of a substrate with respect to a standard reaction mixture in the absence of the substrate.
Enzyme activities of each clone (cell free extract, soluble fraction and membrane fraction) were measured by photometric analysis. The cells of each clone were inoculated in 5 ml of MB medium in a test tube and cultivated at 30° C. for 24 hours. The resulting broth was transferred into 200 ml of fresh MB medium in 500 ml flask and the flask was shaken on the rotary flask shaker at 30° C. for 24 hours. The cells were collected by centrifugation at 6,000×g for 10 minutes and washed with 40 ml of cold buffer consisting of 50 mM Tris-HCl, pH 7.5, 5 mM MgCl2 and 0.5 mM phenylmethylsulfonyl fluoride and suspended with the same buffer to prepare cell suspension of 1 g wet cells per 5 ml. The cell suspension was subjected twice to a French press cell disruptor (1,500 kg/cm^2) and the resulting homogenate was centrifuged at 6,000×g for 10 minutes to remove cell debris. Thus obtained cell free extract (CFE) was centrifuged at 100,000×g for 60 minutes. The resulting supernatant and pellet were collected as the cytosol fraction and the membrane fraction, respectively and subjected to PMS-DCIP assay as follows. The enzyme reaction mixture (1.0 ml) contained 100 μM DCIP, 1 mM PMS, 50 mM Tris malate-NaOH buffer, pH 8.0, a substrate and the enzyme (10 μl). Substrate-dependent decreasing rate of absorbance of DCIP at 600 nm was measured at 25° C. by using a Kontron spectrophotometer UVIKON 810. […] In the A-group, there were three types, A, A′ and A″ each of which was distinguished from each other by their physical map of the DNA carried on each plasmid. B- or C-group each consisted of only one type of protein derived from one region of the chromosomal DNA.

[5] = Products of enzyme reactions with purified enzymes, identified by TLC and/or HPLC; assay type: biochemical
Procedure: Products formed from a substrate in the reaction with Enzyme A, Enzyme A′, Enzyme A″ or Enzyme B were analyzed by thin layer chromatography (TLC) and/or high performance liquid chromatography (HPLC) with authentic compounds. […] Similarly to the reactivity for L-sorbosone, D-glucosone can be converted to 2KD by all of above mentioned AADHs. A group enzymes can produce 2KD from D-fructose whose possible direct product is D-glucosone. […]
Enzyme reactions with purified Enzyme A or Enzyme B and various substrates were performed as described in Example 11.

B1: Enzyme A: recombinant AADH of G. oxydans DSM No. 4025, amino acid sequence SEQ ID NO 5, plasmid p24D4/pSSA102R (protein)
chain: MKPTSLLWASAGALALLAAPAFAQVTPVTDELLANPPAGEWISYGQNQENYRHSPLTQITTENVGQLQLVWARGMQPGKVQVTPLIHDGVMYLANPGDVIQAIDAKTGDLIWEHRRQLPNIATLNSFGEPTRGMALYGTNVYFVSWDNHLVALDTATGQVTFDVDRGQGEDMVSNSSGPIVANGVIVAGSTCQYSPFGCFVSGHDSATGEELWRNYFIPRAGEEGDETWGNDYEARWMTGAWGQITYDPVTNLVHYGSTAVGPASETQRGTPGGTLYGTNTRFAVRPDTGEIVWRHQTLPRDNWDQECTFEMMVTNVDVQPSTEMEGLQSINPNAATGERRVLTGVPCKTGTMWQFDAETGEFLWARDTNYQNMIESIDENGIVTVNEDAILKELDVEYDVCPTFLGGRDWPSAALNPDSGIYFIPLNNVCYDMMAVDQEFTSMDVYNTSNVTKLPPGKDMIGRIDAIDISTGRTLWSVERAAANYSPVLSTGGGVLFNGGTDRYFRALSQETGETLWQTRLATVASGQAISYEVDGMQYVAIAGGGVSYGSGLNSALAGERVDSTAIGNAVYVFALPQ
modifications: Gluconobacter oxydans; SIGNAL (1)..(23)
In the case of B1, the “Relative activity (thermal stability)” value ([1]; 4° C. for 5 minutes (reference)) is reported as 100.0%, the “Relative activity (thermal stability)” value ([1]; 20° C. for 5 minutes, relative to 4° C. incubation) is reported as 91.5% and the “Relative activity (thermal stability)” value ([1]; 30° C. for 5 minutes, relative to 4° C. incubation) is reported as 78.0%. For the same molecule, the Residual activity ([1]; 40° C. for 5 min) was 20%, the “Relative activity (thermal stability)” value ([1]; 40° C. for 5 minutes, relative to 4° C. incubation) was 19.9% and the “Relative activity (thermal stability)” value ([1]; 50° C. for 5 minutes, relative to 4° C. incubation) was 4.1%. For the same molecule, the “Relative activity (thermal stability)” value ([1]; 60° C. for 5 minutes, relative to 4° C. incubation) was 2.9%, the “Relative activity (pH stability)” value ([2]; incubated at pH 4.0, 3 hours) was 5.4% and the “Relative activity (pH stability)” value ([2]; incubated at pH 5.0, 3 hours) was 32.0%. For the same molecule, the “Relative activity (pH stability)” value ([2]; incubated at pH 6.0, 3 hours) was 74.7%, the “Relative activity (pH stability)” value ([2]; incubated at pH 7.0, 3 hours) was 76.9% and the “Relative activity (pH stability)” value ([2]; incubated at pH 8.0, 3 hours) was 80.1%. For the same molecule, the “Relative activity (pH stability)” value ([2]; incubated at pH 9.0, 3 hours) was 60.1%, the “Relative activity (pH stability)” value ([2]; incubated at pH 10.0, 3 hours) was 53.2% and the “Relative activity (pH stability)” value ([2]; incubated at pH 11.0, 3 hours) was 31.0%. For the same molecule, the “Oxidation product of D-sorbitol” value [3] was “mainly D-glucose”, the “Oxidation product of L-sorbose” value [3] was “*1Oxidation product of L-sorbose by Enzymes A, A′, A″, and [A and B] was 2KGA” and the “Oxidation product of L-sorbosone” value [3] was “*4Oxidation product of L-sorbosone by Enzymes A, A′, A″, B, and [A and B] was 2KGA”. The Substrate specificity ([4]; 2 mM L-Sorbosone) was 23.15 units/mg of purified protein, the Substrate specificity ([4]; 50 mM D-Glucose) was 2.4 units/mg of purified protein and the Substrate specificity ([4]; 50 mM D-Mannitol) was 7.1 units/mg of purified protein. The Substrate specificity ([4]; 50 mM Isopropanol) was 76.8 units/mg of purified protein, the Substrate specificity ([4]; 50 mM n-Propanol) was 139.6 units/mg of purified protein and the Substrate specificity ([4]; 125 mM D-Fructose) was 30.7 units/mg of purified protein. The Substrate specificity ([4]; 125 mM D-Sorbitol) was 14.0 units/mg of purified protein, the Substrate specificity ([4]; 125 mM L-Sorbose) was 47.4 units/mg of purified protein and the Product ([5]; substrate D-Mannitol) was “D-Mannose”. For the same molecule, the Product ([5]; substrate D-Sorbitol) was “D-glucose with L-gulose”, the Product ([5]; substrate L-Sorbose) was “L-sorbosone with 2KGA” and the Product ([5]; substrate L-Sorbosone) was 2KGA.

— patent publication US6730503B1 (Roche Vitamins Inc., priority 1996, dated 2004)
